In publication PMC11096383 one finds TGFα shedding assay (AP-TGFα release on CNO, concentration-response) in ∆Gq/∆G12 HEK293 cells; relative intrinsic activity (RAi) of Gα (q-12C) against Gα (q-13C) data, which are given here for 1 molecule.

The target of this experiment is G12D (M3D-GPR183/ICL3 F93^1.57V), FLAG-epitope-tagged (human).
Chain of G12D (M3D-GPR183/ICL3 F93^1.57V), FLAG-epitope-tagged (human) (chain, as listed by the source G12D): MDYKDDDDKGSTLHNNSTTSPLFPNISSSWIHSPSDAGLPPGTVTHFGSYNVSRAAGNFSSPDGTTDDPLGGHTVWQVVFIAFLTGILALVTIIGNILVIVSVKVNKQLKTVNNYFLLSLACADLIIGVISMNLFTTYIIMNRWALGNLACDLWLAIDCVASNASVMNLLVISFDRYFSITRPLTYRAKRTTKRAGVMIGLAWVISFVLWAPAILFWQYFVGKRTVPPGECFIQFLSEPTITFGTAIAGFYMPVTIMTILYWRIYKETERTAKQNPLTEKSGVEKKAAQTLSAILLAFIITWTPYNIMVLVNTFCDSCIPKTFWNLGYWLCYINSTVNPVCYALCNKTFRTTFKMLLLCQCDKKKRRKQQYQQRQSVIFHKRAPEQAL

B1: Gα_(q-12C) (protein)
chain: MTLESIMACCLSEEAKEARRINDEIERQLRRDKRDARRELKLLLLGTGESGKSTFIKQMRIIHGSGYSDEDKRGFTKLVYQNIFTAMQAMIRAMDTLKIPYKYEHNKAHAQLVREVDVEKVSAFENPYVDAIKSLWNDPGIQECYDRRREYQLSDSTKYYLNDLDRVADPAYLPTQQDVLRVRVPTTGIIEYPFDLQSVIFRMVDVGGQRSERRKWIHCFENVTSIMFLVALSEYDQVLVESDNENRMEESKALFRTIITYPWFQNSSVILFLNKKDLLEEKIMYSHLVDYFPEYDGPQRDAQAAREFILKMFVDLNPDSDKIIYSHFTCATDTENVRFVFHAVKDTILQENLKDIMLQ
In turn, B1 showed a TGFα shedding assay (AP-TGFα release on CNO, concentration-response) in ∆Gq/∆G12 HEK293 cells; relative intrinsic activity (RAi) of Gα (q-12C) against Gα (q-13C) of 4.6 fold.
